Test results published in patent publication US10774132B2, “Ultralong complementarity determining regions and uses thereof” (THE SCRIPPS RESEARCH INSTITUTE, priority 2012, dated 2020).

Legend:
Mouse NFS-60 cells = test: Proliferation assay on mouse NFS-60 cells (AlamarBlue); assay type: cell-based; conditions: for F.I. (fluorescence at 595 nm, AlamarBlue, cell viability): 72 hours
Method: Mouse NFS-60 cells were obtained from American Type Culture Collection (ATCC), VA, and cultured in RPMI-1640 medium supplemented with 10% fetal bovine serum (FBS), 0.05 mM 2-mercapoethanol and 62 ng/ml human macrophage colony stimulating factor (M-CSF). For proliferation assay, mouse NFS-60 cells were washed three times with RPMI-1640 medium and resuspended in RPMI-1640 medium with 10% FBS and 0.05 mM 2-mercapoethanol at a density of 1.5×10^5 cells/ml. In 96-well plates, 100 μl of cell suspension was added into each well, followed by the addition of varied concentrations of bGCSF, BLV1H12 antibody, and the immunoglobulin constructs described herein, Equal volume of PBS buffer was added into the control wells. The plates were incubated at 37° C. in a 5% CO2 incubator for 72 hours. Cells were then treated with AlamarBlue (Invitrogen) ( 1/10 volume of cell suspension) for 4 hours at 37° C. Fluorescence at 595 nm for each well was read to indicate the cell viability.

Human mPB CD34+ cells = test: Proliferative activity on human granulocyte progenitors (flow cytometry); assay type: cell-based; conditions: for Number of CD45RA-CD41-: 7 days, flow cytometry
Method: Human mPB CD34^+ cells were purchased from AllCells. Cells were resuspended in HSC expansion medium (StemSpan SFEM, StemCell Technologies) supplemented with 1× antibiotics and the following recombinant human cytokines: thrombopoietin, IL6, Flt3 ligand, and stem cell factor (100 ng/mL, R & D Systems), then plated in 96-well plates (1000 cells per well), with varied concentrations of BLV1H12-bGCSF fusion antibodies. Cells were cultured for 7 days at 37° C. in a 5% CO2 incubator, then analyzed by flow cytometry to measure cell number and expression of CD45ra and CD41. Cells were stained in staining medium (HBSS supplemented with 2% FBS and 2 mM EDTA) at 4° C. for 1 h with PECy7 anti-CD45ra and eFluor 450 anti-CD41 (eBiosciences), then washed with staining medium and analyzed. Multicolor analysis for cell phenotyping was performed on a LSR II flow cytometer (Becton Dickinson). FIGS. 10A-10E and Tables 9-10 show the human granulocyte progenitor cell proliferative activities of the Ab-GCSF fusion antibodies.

mice neutrophils = test: Neutrophil counts in mice, 10th day after injection; assay type: in vivo; conditions: blood stained and counted at the 10th day post-injection
Method: On the 10th day after injection of BLV1H12-bGCSF fusion antibodies into mice for PK study, blood samples were drawn from the mice and stained using the Diff Quick Staining Kit (Thermo Fisher Scientific, IL). Neutrophils and white blood cells were counted under microscope and the percentages of neutrophils were analyzed. FIGS. 12A-12B and Table 12 show proliferative activities of BLV1H12-bGCSF fusion antibodies on mice neutrophils that are blood stained and counted at the 10th day post-injection.

GLP-1 receptor (GLP-1R) = biological target: T1, GLP-1 receptor (GLP-1R) (Homo sapiens, UniProt P43220); test: GLP-1R activation, cAMP responsive luciferase reporter in HEK293 cells; assay type: cell-based; conditions: HEK293 cells expressing GLP-1R, 24 h
T1 construct: expressed in transfected cells; host or cells: HEK293 (with cAMP responsive luciferase reporter gene)
T1 sequence (P43220 24-463, species assumed): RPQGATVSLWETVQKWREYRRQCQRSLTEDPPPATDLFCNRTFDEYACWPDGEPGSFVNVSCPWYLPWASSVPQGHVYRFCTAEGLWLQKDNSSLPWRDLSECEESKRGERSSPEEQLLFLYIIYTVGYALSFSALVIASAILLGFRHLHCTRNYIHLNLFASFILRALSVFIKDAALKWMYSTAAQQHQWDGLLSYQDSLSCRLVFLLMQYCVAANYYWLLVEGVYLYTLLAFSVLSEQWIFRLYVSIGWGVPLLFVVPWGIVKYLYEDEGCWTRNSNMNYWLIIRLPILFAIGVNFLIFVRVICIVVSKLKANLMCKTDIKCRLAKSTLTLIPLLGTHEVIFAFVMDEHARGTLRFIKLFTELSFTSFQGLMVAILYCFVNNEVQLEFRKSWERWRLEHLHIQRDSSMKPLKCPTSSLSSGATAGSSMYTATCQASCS
Method: HEK293 cells expressing surface GLP-1R and cAMP responsive luciferase reporter gene were seeded in 384 well plates at a density of 5000 cells per well. […] Subsequently, luciferase assay was performed using One-Glo luciferase reagent according manufacture's instruction (Promega).
HEK293 cells expressing surface GLP-1R and cAMP responsive luciferase reporter gene were seeded in 384 well plates at a density of 5000 cells per well. After 24 h incubation at 37° C. with 5% CO2, cells were treated with various concentrations of peptides and BLV1H12-GLP-1 clip fusion proteins and incubated for another 24 h. Subsequently, luciferase assay was performed using One-Glo luciferase reagent according manufacture's instruction (Promega).

CXCR1 = biological target: T2, CXCR1 (Homo sapiens, UniProt P25024); test: Flow cytometry binding to CXCR1-U2OS cells; conditions: CXCR1-U2OS cells; cell culture supernatant; flow cytometry
T2 construct: host or cells: U2OS
T2 sequence (P25024 1-350): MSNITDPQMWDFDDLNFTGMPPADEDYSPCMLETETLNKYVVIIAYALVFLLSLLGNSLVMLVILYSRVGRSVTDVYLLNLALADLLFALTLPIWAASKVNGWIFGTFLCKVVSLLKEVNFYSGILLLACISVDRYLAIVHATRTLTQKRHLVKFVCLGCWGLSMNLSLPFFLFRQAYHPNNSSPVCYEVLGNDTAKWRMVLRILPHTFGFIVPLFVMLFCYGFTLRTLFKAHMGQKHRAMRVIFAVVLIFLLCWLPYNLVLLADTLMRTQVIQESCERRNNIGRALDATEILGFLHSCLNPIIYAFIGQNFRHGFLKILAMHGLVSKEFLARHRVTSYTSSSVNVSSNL
Method: (§1) Briefly, a cell line expressing functionally validated CXCR1 derived from U2OS cells was obtained from DiscoveRx and cultured per manufacturer's instructions (Cat #93-0226C3, DiscoveRx Corporation, Freemont, Calif.). The parental cell line U2OS was obtained from ATCC and cultured under the same conditions as the CXCR1 cells. Cell culture supernatants from Example 2 above were then tested for binding to cells by flow cytometry. The adherent U2OS or CXCR1-U2OS cells were dissociated with Accutase (Innovative Cell Technologies, Inc., San Diego, Calif.), neutralized with an equal volume of media containing 10% serum, centrifuged at 1000 g, and resuspended in PBS with 2% BSA. Next, cells were dispensed into microtiter plates to achieve between 30,000 to 300,000 cells per well, centrifuged again, and resuspended in cell culture supernatant containing expressed IgG, or a dilution of IgG-containing cell culture supernatant. A fluorescent-conjugated anti-Human Fc antibody was used to detect binding of the expressed BLV1H12-IL8 fusion proteins to cells.

Parental U2OS = test: Flow cytometry binding to parental U2OS cells; conditions: cell culture supernatant
Method: as §1

B1: Ab: bovine BLV1H12 antibody with ultralong CDR3, no insertion; scaffold of the fusions and control (antibody)
heavy: QVQLRESGPSLVKPSQTLSLTCTASGFSLSDKAVGWVRQAPGKALEWLGSIDTGGNTGYNPGLKSRLSITKDNSKSQVSLSVSSVTTEDSATYYCTSVHQETKKYQSCPDGYRERSDCSNRPACGTSDCCRVSVFGNCLTTLPVSYSYTYNYEWHVDVWGQGLLVTVSS
light: QAVLNQPSSVSGSLGQRVSITCSGSSSNVGNGYVSWYQLIPGSAPRTLIYGDTSRASGVPDRFSGSRSGNTATLTISSLQAEDEADYFCASAEDSSSNAVFGSGTTLTVLGQPKSPPSVTLFPPSTEELNGNKATLVCLISDFYPGSVTVVWKADGSTITRNVETTRASKQSNSKYAASSYLSLTSSDWKSKGSYSCEVTHEGSTVTKTVKPSECS
proliferative activity on mouse NFS-60 cells (Mouse NFS-60 cells): lack of proliferative activity
F.I. (fluorescence at 595 nm, AlamarBlue, cell viability) (Mouse NFS-60 cells; 0.45725 ng/mL): 1040
F.I. (fluorescence at 595 nm, AlamarBlue, cell viability) (Mouse NFS-60 cells; 1.37174 ng/mL): 1010
F.I. (fluorescence at 595 nm, AlamarBlue, cell viability) (Mouse NFS-60 cells; 4.11523 ng/mL): 983.3
F.I. (fluorescence at 595 nm, AlamarBlue, cell viability) (Mouse NFS-60 cells; 12.34568 ng/mL): 971.8
F.I. (fluorescence at 595 nm, AlamarBlue, cell viability) (Mouse NFS-60 cells; 37.03704 ng/mL): 960.5
F.I. (fluorescence at 595 nm, AlamarBlue, cell viability) (Mouse NFS-60 cells; 111.11111 ng/mL): 991.83
F.I. (fluorescence at 595 nm, AlamarBlue, cell viability) (Mouse NFS-60 cells; 333.33333 ng/mL): 964.798
proliferative activity on human granulocyte progenitor cells (Human mPB CD34+ cells): lack of proliferative activity
Number of CD45RA-CD41- (Human mPB CD34+ cells; 0.28959 ng/mL): 3666
Number of CD45RA-CD41- (Human mPB CD34+ cells; 0.86877 ng/mL): 3839
Number of CD45RA-CD41- (Human mPB CD34+ cells; 2.60631 ng/mL): 3852
Number of CD45RA-CD41- (Human mPB CD34+ cells; 23.45679 ng/mL): 3519
Number of CD45RA-CD41- (Human mPB CD34+ cells; 70.37037 ng/mL): 3541
Number of CD45RA-CD41- (Human mPB CD34+ cells; 211.11111 ng/mL): 3606
Number of CD45RA-CD41- (Human mPB CD34+ cells; 5700 ng/mL): 4100
Percentage of Neutrophil (mice neutrophils): 18.81
RLU (cAMP responsive luciferase reporter) (GLP-1 receptor (GLP-1R); 1.26953 nM): 5200 RLU
RLU (cAMP responsive luciferase reporter) (GLP-1 receptor (GLP-1R); 2.53906 nM): 5000 RLU
RLU (cAMP responsive luciferase reporter) (GLP-1 receptor (GLP-1R); 5.07813 nM): 5600 RLU
RLU (cAMP responsive luciferase reporter) (GLP-1 receptor (GLP-1R); 10.15625 nM): 5500 RLU
RLU (cAMP responsive luciferase reporter) (GLP-1 receptor (GLP-1R); 20.3125 nM): 5380 RLU
RLU (cAMP responsive luciferase reporter) (GLP-1 receptor (GLP-1R); 40.625 nM): 4600 RLU
RLU (cAMP responsive luciferase reporter) (GLP-1 receptor (GLP-1R); 81.25 nM): 6140 RLU
RLU (cAMP responsive luciferase reporter) (GLP-1 receptor (GLP-1R); 162.5 nM): 5760 RLU
RLU (cAMP responsive luciferase reporter) (GLP-1 receptor (GLP-1R); 325 nM): 5600 RLU
RLU (cAMP responsive luciferase reporter) (GLP-1 receptor (GLP-1R); 650 nM): 5800 RLU
RLU (cAMP responsive luciferase reporter) (GLP-1 receptor (GLP-1R); 1300 nM): 14000 RLU
Median Arbitrary Fluorescence Units (IgG binding) (CXCR1): 4 AFU
Median Arbitrary Fluorescence Units (IgG binding) (Parental U2OS): 4 AFU
